Experiments:
em promoter = em promoter driven GUS expression in bombarded barley aleurone layers; type: cell-based; conditions: em plus ABAP1 bombardment, without ABA treatment
Text: The studies examined the effector and reporter constructs, at a 1:1 ratio, introduced to barley aleurone layers by gold particle bombardment. The bombardment consisted of two trials: the first trial was a bombardment of em promoter only; the second trial was a bombardment of em promoters treated with ABAP1.

α-amylase activity = α-amylase activity in bombarded barley aleurones; type: cell-based; conditions: em and ABAP1 bombarded aleurones
Procedure: A similar experiment was conducted with α-amylase activity to confirm if ABAP1 is involved in another signal transduction pathway. α-amylase activity was measured after ABA, PBI51 and GA were added to the em and ADAPT bombarded barley aleurones.

McLeod barley embryos = assay: Germination of bombarded mature embryos, McLeod line; type: in vivo; conditions: in the presence of ABAP1
Procedure: (§1) To determine whether or not ABAP1 affects seed germination, mature embryo from two different barley lines (McLeod and Harrington) were bombarded with sense and anti-sense orientation of ABAP1. The embryos were subjected to different ABA treatments and the germination rate, plumule length, radical length and root numbers per embryo were measured for up to four days after bombardment.

[1] = test system: Harrington barley embryos; assay: Germination and growth of bombarded mature embryos, Harrington line; type: in vivo
Procedure: as §1

B1: ABAP1: barley ABA-binding protein, 472 amino acids, SEQ ID NO: 10; expressed from effector construct in bombardment tests (protein)
chain: MNSLSGTYIMRGCEQPLIVRFADPKRPRPGESRGGPAFGGPGVSSRSDAALVIRPTANLDEQIGRHMPPDTWRPSSPSSMAPHQFNNFGSDNSMGLMGGPVTSAADNVAFRPQLFHGNGSLSSQTAVPASSHMGINPSLSQGHHLGGPQIPPLQKPTGLQQNFPVQLQNAQQGQLHASQSLGPGSFGQNIPTMQLPGQLPVSQPLTQQNASACALQAPSAVQSNPMQSVPGQQQLPSNLTPQMLQQPVQQMLSQAPQLLLQQQQAAMQSSYQSSQQTIFQLQQQLQLMQQQQHQQQPNLNQQPHTQVPKQQGQPVQSNAPGAPAAMMTTNINAIPQQVNSPAVSLTCNWTEHTSPEGFKYYYNSITRESKWEKPEEYVLYEQQQQQQDHQKLILLQQHQQKLVAQQLQSPPQAQTIPSMQSMQHHPQSQQGHNQMQMKQQDLNYNQLQPTGTIDPSRIQQGIQAAQERSWKS
modifications: Hordeum, vulgare subsp. vulgare
GUS activity versus em alone (em promoter): twice fold | α-amylase activity (α-amylase activity): reduction | germination rate (McLeod barley embryos): significantly lower | germination rates [1]: did not seem to be affected | plumule and radical growth ([1]; in the presence of ABAP1): significantly retarded

From patent publication US20080235828A1 (University of Manitoba, priority 2004, published 2008)
